Results taken from patent US20090220532A1 (PROYECTO DE BIOMEDICINA CIMA S L, published 2009).

Biological target: human TLR4 (Toll-like receptor 4) on HEK293 cells expressing human TLR4-MD2-CD14 (human, UniProt O00206 24-839)
Test: cell-based or functional assay

human TLR4 (Toll-like receptor 4) on HEK293 cells expressing human TLR4-MD2-CD14, sequence (O00206 24-839): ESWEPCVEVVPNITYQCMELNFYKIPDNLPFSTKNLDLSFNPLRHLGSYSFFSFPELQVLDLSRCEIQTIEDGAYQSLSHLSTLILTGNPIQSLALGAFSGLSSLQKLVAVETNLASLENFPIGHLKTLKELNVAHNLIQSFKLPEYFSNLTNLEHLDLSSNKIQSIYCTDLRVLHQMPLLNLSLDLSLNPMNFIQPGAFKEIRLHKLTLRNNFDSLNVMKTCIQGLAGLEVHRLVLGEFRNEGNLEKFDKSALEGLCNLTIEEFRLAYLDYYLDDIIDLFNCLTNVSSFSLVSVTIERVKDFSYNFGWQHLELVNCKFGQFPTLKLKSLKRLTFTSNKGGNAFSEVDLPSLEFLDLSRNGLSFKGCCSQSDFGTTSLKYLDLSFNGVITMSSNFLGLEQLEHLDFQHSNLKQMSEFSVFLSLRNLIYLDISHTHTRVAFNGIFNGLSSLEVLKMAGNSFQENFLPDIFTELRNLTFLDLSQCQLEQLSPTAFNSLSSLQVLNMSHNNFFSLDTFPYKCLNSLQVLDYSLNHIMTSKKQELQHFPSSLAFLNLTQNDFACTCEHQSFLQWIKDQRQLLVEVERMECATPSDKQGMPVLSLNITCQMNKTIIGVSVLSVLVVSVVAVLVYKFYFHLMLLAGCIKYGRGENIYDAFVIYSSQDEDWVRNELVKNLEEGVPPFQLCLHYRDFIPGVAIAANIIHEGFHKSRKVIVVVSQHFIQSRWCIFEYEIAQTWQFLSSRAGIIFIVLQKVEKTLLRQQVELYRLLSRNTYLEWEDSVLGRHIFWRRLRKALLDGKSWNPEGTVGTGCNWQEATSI

- fold NF-κB induction factor (SEAP reporter under NF-κB-inducible ELAM-1 promoter; OD of HEK293/TLR4-MD2-CD14 supernatants divided by OD of HEK293/LacZ supernatants), 100 nM EDA-SIINFEKL: 7 fold
B1: EDA-SIINFEKL-6xHis fusion protein (recombinant proteinaceous vector) (ligand)
chain: MNIDRPKGLAFTDVDVDSIKIAWESPQGQVSRYRVTYSSPEDGIRELFPAPDGEDDTAELQGLRPGSEYTVSVVALHDDMESQPLIGIQSTQLESIINFEKLTEWAAALEHHHHHH
